US20240209068A1

Tests used:
[1] = target: Clostridium difficile toxin A (purified) (Clostridium difficile) (UniProt P16154)
[2] = target: Clostridium difficile toxin A (purified) (Clostridium difficile) (UniProt P16154); assay: cell-based or functional assay

Sequence of Actoxumab IgA2m1 (heavy, form in doubt): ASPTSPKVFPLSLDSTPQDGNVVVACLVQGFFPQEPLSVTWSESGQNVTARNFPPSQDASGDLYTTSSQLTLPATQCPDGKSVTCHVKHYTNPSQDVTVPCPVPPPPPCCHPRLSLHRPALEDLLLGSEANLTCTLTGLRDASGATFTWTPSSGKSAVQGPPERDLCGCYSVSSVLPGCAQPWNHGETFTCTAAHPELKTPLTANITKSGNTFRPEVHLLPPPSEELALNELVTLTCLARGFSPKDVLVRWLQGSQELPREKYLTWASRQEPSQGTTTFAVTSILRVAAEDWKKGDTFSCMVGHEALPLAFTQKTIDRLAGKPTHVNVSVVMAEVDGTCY
Sequence of Actoxumab IgA2m1 (P01591 whole entry, form in doubt): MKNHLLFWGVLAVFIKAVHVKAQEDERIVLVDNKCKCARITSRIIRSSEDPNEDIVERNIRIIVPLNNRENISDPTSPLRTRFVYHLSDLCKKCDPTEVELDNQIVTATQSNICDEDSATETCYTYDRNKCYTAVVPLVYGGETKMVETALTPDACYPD

Actoxumab IgA2m1 (antibody)
IC50 (read off the curve); % neutralization of Toxin A on Vero cells (alamarBlue), curve 'Actoxumab IgA2m1 Protein' [1]: 0.03 µg/mL
IC50 (read off the curve); % neutralization of Toxin A on Vero cells (alamarBlue), curve 'Actoxumab IgA2m1 mRNA' [1]: 0.01 µg/mL
potency (IC50) of Toxin A neutralization on Vero cells relative to Actoxumab IgG; antibody from mRNA-transfected cell supernatant [2]: 200 fold
potency (IC50) of Toxin A neutralization on Vero cells relative to Actoxumab IgG; recombinant antibody protein [2]: 200 fold
